Measured values as given in article PMC4038064.
Read-outs that look alike come from different tables or passages of the source.

Columns and labels:
[1] = target: Neuropilin-1 domains b1b2 (Nrp1-b1b2); experiment: in vitro plate binding assay
[2] = target: Neuropilin-1 domains b1b2 (Nrp1-b1b2); experiment: ITC
[3] = target: Neuropilin-1 domains b1b2 (Nrp1-b1b2); experiment: in vitro plate binding assay; remark: listed apart in the source

| Molecule | IC50 [1] [µM] | Ka [2] [M⁻¹] | Kd [2] [µM] | dH [2] [kcal/mol] | stoichiometry N [2] | IC50 [3] [µM] |
| --- | --- | --- | --- | --- | --- | --- |
| Sema3E.3 peptide (Sema3E, furin cleavage site 3) | 0.76 | – | – | – | – | – |
| Sema3A.2 peptide (Sema3A, furin cleavage site 2) | 34 | – | – | – | – | – |
| WDQKKPRNDR [Sema3F C-terminal peptide, C-1 aspartate variant (S3F-DR)] | – | – | – | – | – | 28 |

More lines, now with the values ahead:

| IC50 [1] [µM] | Ka [2] [M⁻¹] | Kd [2] [µM] | dH [2] [kcal/mol] | stoichiometry N [2] | IC50 [3] [µM] | Molecule |
| --- | --- | --- | --- | --- | --- | --- |
| – | 101000 | 10 | -17 | 1 | 4.7 | WDQKKPRNPR [Sema3F C-terminal peptide, C-1 proline variant (S3F-PR)] |
| – | – | 33 | -18.5 | 1 | 11 | WDQKKPRNRR [Sema3F C-terminal peptide, wild type (S3F-RR)] |
